T1: BMP receptor type 2 (UniProt Q13873 27-150)
T1 construct: BMP receptor type 2 (BMPR2); No catalogue number is printed; also called BMPR2; source: bought: Thermo Fisher Scientific Co
T1 sequence (looked up): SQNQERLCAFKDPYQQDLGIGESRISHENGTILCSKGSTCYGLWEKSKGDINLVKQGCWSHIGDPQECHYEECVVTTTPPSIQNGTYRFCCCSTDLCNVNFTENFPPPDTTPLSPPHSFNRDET

B1: BMP receptor type 1B (receptor, UniProt O00238 14-126, looked up)
chain: KKEDGESTAPTPRPKVLRCKCHHHCPEDSVNNICSTDGYCFTMIEEDDSGLPVVTSGCLGLEGSDFQCRDTPIPHQRRSIECCTERNECNKDLHPTLPPLKNRDFVDGPIHHR
notes: BMP receptor type 1B (BMPR1B); No catalogue number is printed; also called BMPR1B; source: bought: Thermo Fisher Scientific Co
B2: Chinese hamster ovary cell-derived recombinant human bone morphogenetic protein-2 (ligand, UniProt P12643 283-396, looked up)
chain: QAKHKQRKRLKSSCKRHPLYVDFSDVGWNDWIVAPPGYHAFYCHGECPFPLADHLNSTNHAIVQTLVNSVNSKIPKACCVPTELSAISMLYLDENEKVVLKNYQDMVVEGCGCR
modifications: N-glycan (position not given)
notes: Bone morphogenetic protein 2 (BMP-2), human, CHO cell-derived, glycosylated; also called C-rhBMP-2; CHO cell-derived rhBMP-2; source: CHO cell-derived; bought: National Institute for Biological Standards and Control
B3: Escherichia coli-derived recombinant human bone morphogenetic protein-2 (ligand, UniProt P12643 283-396, looked up)
chain: B2 chain
notes: Bone morphogenetic protein 2 (BMP-2), human; no glycans; Not glycosylated (made in E. coli); an added N-terminal methionine is not spoken of; also called E-rhBMP-2; E. coli-derived rhBMP-2; source: E. coli-derived; provided by Daewoong Pharmaceutical Co., Ltd

Experiments:
Assay in all cases: SPR; Biacore T200; rhBMP-2 (ligand) immobilised by EDC/NHS coupling, target level 500 RU, in 10 mM sodium acetate pH 6.0; receptors as analytes, 10-2000 nM, 30 µL/min, 120 s association and 120 s dissociation; 1:1 binding model
Settings in all cases: both partners purified
[1] = target: B3
[2] = target: B2
BMP receptor type 2 = target: T1, BMP receptor type 2

Binder | Kd [1] | kon [1] | Kd [2] | kon [2] | Kd (BMP receptor type 2)
B1 | 194 nM | 1960 M⁻¹ s⁻¹ | 74.3 nM | 3470 M⁻¹ s⁻¹ | 
B2 |  |  |  |  | 141 nM
B3 |  |  |  |  | 140 nM
